The target of series [1] is T1, N. gonorrhoeae PriA (N. gonorrhoeae) (UniProt Q5F6V8).
T1 sequence: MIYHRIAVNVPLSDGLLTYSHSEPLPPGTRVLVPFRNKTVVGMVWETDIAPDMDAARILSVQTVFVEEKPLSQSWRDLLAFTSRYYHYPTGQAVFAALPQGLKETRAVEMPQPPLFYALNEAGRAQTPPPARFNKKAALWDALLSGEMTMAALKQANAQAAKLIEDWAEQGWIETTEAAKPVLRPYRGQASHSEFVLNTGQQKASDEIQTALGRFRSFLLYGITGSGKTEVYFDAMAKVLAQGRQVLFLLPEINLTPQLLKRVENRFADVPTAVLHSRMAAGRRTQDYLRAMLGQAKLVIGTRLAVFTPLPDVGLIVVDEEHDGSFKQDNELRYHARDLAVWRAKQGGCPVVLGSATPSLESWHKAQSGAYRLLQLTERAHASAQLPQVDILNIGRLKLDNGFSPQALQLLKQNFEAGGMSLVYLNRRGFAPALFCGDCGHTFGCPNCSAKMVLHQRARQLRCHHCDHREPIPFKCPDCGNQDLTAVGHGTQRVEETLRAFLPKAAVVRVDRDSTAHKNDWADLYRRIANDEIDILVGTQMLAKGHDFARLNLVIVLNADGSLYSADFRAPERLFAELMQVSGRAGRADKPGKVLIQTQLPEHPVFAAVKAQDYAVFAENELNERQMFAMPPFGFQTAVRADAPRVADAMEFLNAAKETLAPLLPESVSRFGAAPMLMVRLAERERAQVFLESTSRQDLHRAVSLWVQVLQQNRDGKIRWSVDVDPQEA

Series [2] addresses T1, N. gonorrhoeae PriA (N. gonorrhoeae). This is another data set of the same source.
Substrate in series [3]: Nc1ncnc2c1ncn2[C@@H]1O[C@H](COP(=O)(O)OP(=O)(O)OP(=O)(O)O)[C@@H](O)[C@H]1O
The experiment in a line: NADH-coupled spectrophotometric ATPase assay (pyruvate kinase / lactate dehydrogenase). Conditions: 100 nM Fork 3 DNA, no PriB, 10 nM PriA, 20 mM Hepes pH 8, 50 mM NaCl, 25°C. In kind it is biochemical, Neisseria gonorrhoeae. An excerpt: NADH-coupled spectrophotometric ATPase assay (pyruvate kinase / lactate dehydrogenase) on N. gonorrhoeae PriA

Another series has as its target T2, PriB (Neisseria gonorrhoeae, UniProt Q5F924 1-100).
T2 sequence: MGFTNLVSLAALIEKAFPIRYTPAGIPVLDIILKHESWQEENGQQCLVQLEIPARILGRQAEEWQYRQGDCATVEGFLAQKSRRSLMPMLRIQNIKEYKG
Kind of series: fluorescence polarization; 20 mM Tris-HCl pH 8, 10% glycerol, 50 mM NaCl, 1 mM 2-mercaptoethanol, 0.1 mg/ml BSA, 1 nM fluorescein-labeled DNA, 25 C. Particulars: protein: recombinant, chain copies: 2. A general note: Polarisation of emitted light reports the rotation of a fluorescent probe.

The next series deals with T3, PriA helicase (Neisseria gonorrhoeae, UniProt Q5F6V8 1-729).
T3 sequence: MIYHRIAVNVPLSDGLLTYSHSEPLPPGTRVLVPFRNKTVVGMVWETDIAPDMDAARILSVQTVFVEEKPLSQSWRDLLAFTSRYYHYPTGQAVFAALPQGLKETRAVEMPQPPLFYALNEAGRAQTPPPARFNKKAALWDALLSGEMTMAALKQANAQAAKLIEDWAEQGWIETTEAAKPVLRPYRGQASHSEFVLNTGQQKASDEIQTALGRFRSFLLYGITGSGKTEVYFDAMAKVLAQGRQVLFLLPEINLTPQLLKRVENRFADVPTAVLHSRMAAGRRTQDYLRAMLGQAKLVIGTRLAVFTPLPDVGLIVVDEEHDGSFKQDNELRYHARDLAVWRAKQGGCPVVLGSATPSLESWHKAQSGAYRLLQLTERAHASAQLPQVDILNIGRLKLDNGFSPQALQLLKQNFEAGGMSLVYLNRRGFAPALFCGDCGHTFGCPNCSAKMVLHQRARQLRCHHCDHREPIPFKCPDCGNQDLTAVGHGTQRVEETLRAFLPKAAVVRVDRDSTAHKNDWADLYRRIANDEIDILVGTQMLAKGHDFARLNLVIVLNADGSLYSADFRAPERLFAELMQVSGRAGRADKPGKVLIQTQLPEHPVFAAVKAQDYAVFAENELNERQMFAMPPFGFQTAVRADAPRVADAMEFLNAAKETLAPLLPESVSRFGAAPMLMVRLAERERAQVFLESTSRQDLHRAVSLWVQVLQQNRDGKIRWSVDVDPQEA
The description is as above. Particulars: protein: recombinant.

[4] abbreviates: label: 3' fluorescein, single strand.
Where [5] appears, read: label: 3' fluorescein on S5 (nascent lagging strand), 25 bp duplex, 3' overhang 25 nt on strand 1.

The record followed here is publication PMC3179954, “A bacterial PriB with weak single-stranded DNA binding activity can stimulate the DNA unwinding activity of its cognate PriA helicase” (BMC Microbiology, 2011).

The term Km denotes the concentration of substrate that gives half-maximal velocity. By kcat is commonly meant the maximal rate divided by the concentration of active sites. By Kd is commonly meant the constant that tells how readily two partners part at equilibrium.

B1: N. gonorrhoeae PriB (natural protein)
chain: MGFTNLVSLAALIEKAFPIRYTPAGIPVLDIILKHESWQEENGQQCLVQLEIPARILGRQAEEWQYRQGDCATVEGFLAQKSRRSLMPMLRIQNIKEYKG
Molecule B1 had a percent unwinding of 1 nM Fork 3 by 2 nM PriA against PriB concentration (0 to 100 nM as monomers; 36% without PriB, near saturation at 20 nM) in series [1] of 86%. Besides, in series [2], the fold stimulation of PriA helicase activity by PriB (unwinding with versus without PriB; 2 nM PriA, 100 nM PriB monomers, 1 nM 15 bp fork, Fork 1) worked out at 1.2 fold; the fold stimulation of PriA helicase activity by PriB (unwinding with versus without PriB; 2 nM PriA, 100 nM PriB monomers, 1 nM 25 bp fork, Fork 2) worked out at 1.7 fold; the fold stimulation of PriA helicase activity by PriB (unwinding with versus without PriB; 2 nM PriA, 100 nM PriB monomers, 1 nM 40 bp fork, Fork 3) came to 2.4 fold.

B2: N. gonorrhoeae PriA (Neisseria gonorrhoeae FA 1090) (protein)
chain: MIYHRIAVNVPLSDGLLTYSHSEPLPPGTRVLVPFRNKTVVGMVWETDIAPDMDAARILSVQTVFVEEKPLSQSWRDLLAFTSRYYHYPTGQAVFAALPQGLKETRAVEMPQPPLFYALNEAGRAQTPPPARFNKKAALWDALLSGEMTMAALKQANAQAAKLIEDWAEQGWIETTEAAKPVLRPYRGQASHSEFVLNTGQQKASDEIQTALGRFRSFLLYGITGSGKTEVYFDAMAKVLAQGRQVLFLLPEINLTPQLLKRVENRFADVPTAVLHSRMAAGRRTQDYLRAMLGQAKLVIGTRLAVFTPLPDVGLIVVDEEHDGSFKQDNELRYHARDLAVWRAKQGGCPVVLGSATPSLESWHKAQSGAYRLLQLTERAHASAQLPQVDILNIGRLKLDNGFSPQALQLLKQNFEAGGMSLVYLNRRGFAPALFCGDCGHTFGCPNCSAKMVLHQRARQLRCHHCDHREPIPFKCPDCGNQDLTAVGHGTQRVEETLRAFLPKAAVVRVDRDSTAHKNDWADLYRRIANDEIDILVGTQMLAKGHDFARLNLVIVLNADGSLYSADFRAPERLFAELMQVSGRAGRADKPGKVLIQTQLPEHPVFAAVKAQDYAVFAENELNERQMFAMPPFGFQTAVRADAPRVADAMEFLNAAKETLAPLLPESVSRFGAAPMLMVRLAERERAQVFLESTSRQDLHRAVSLWVQVLQQNRDGKIRWSVDVDPQEA
As for B2, in series [3], the Km was 54 ± 19 µM and the turnover number (kcat) is 9 ± 1 s⁻¹.

B3: ssDNA (oML228) (ssDNA)
DNA: AAGCACAATTACCCACGC
For B3, the Kd in the series with PriB (setting [4]) turned out to be 0.662 ± 0.037 µM; in the series with PriA helicase (setting [4]), 0.307 ± 0.043 µM.

B4: 3' Overhang (oML276/oML277) (mixed)
DNA 1: AACGTCATAGACGATTACATTGCTACATGGAGCTGTCTAGAGGATCCGAC
DNA 2: TAGCAATGTAATCGTCTATGACGTT
For B4, the results for the Kd with PriB (setting [5]) and with PriA helicase (setting [5]) were 0.628 ± 0.095 µM and 0.234 ± 0.062 µM, respectively.
